Measurements reported in patent US20190290686A1.

Molecular target: T cell receptor of CD8+ T cells from OT1 transgenic mice (ova-specific T cells)
Experiment: cell-based or functional assay

H-2Kb SIINFEKL-DBCO-Thiolinker monomer clicked onto azido-labeled murine erythroid cells (from UniProt P01901 22-305) (peptide-MHC)
expansion of OT1 cells in vivo after a second aAPC dose (FIG. 6): > 200 fold
